From EP4606823A1 (Bristar Immunotech Limited, dated 2025) come the findings set out here.

Assay [1] concerns the target T1, stock region of LILRB4 (UniProt Q8NHJ6 219-259, limits assumed).
T1 construct: domain: stock region
Briefly: flow cytometry. (Flow cytometry measures light scatter and fluorescence of single cells or particles in a stream.)

The target of assay [2] is T2, LILRB4 protein (UniProt Q8NHJ6 22-259).
T2 construct: also called Pro-LB
Briefly: SPR (Biacore 8K); VHH-Fc captured by anti-human IgG(Fc) on CM5 chip, LILRB4 protein as analyte 0.977-62.5 nM; 1:1 binding fit. For orientation: Surface plasmon resonance follows binding to a sensor surface in real time, without labels.

In assay [3] the target is T3, mouse LILRB4 (mouse, UniProt Q64281 24-335).
T3 construct: whole, on cells; also called 293T-mouse LILRB4
T3 sequence (looked up): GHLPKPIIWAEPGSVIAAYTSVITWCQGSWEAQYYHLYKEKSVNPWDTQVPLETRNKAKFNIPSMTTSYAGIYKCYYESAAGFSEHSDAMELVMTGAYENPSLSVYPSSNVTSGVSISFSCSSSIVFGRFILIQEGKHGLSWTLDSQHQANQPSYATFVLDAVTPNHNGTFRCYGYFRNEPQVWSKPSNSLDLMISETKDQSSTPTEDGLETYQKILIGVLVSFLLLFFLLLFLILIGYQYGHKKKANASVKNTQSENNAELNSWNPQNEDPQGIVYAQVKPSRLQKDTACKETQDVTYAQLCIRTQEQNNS
Briefly: flow cytometry on 293T-mouse LILRB4.

For assay [4], the target named is T4, LILRA6 (UniProt Q6PI73 24-481, limits assumed).
T4 construct: whole, on cells
Briefly: flow cytometry on 293T cells expressing the protein.

The target in assay [5] is T5, LILRA1 (UniProt O75019 17-489, limits assumed).
T5 construct: whole, on cells
The description is as above.

The target in assay [6] is T6, LILRB5 (UniProt O75023 24-590, limits assumed).
T6 construct: whole, on cells
The assay is described as above.

In assay [7] the target is T7, LILRA3 (UniProt Q8N6C8 24-439, limits assumed).
T7 construct: whole, on cells
The assay is described as above.

Assay [8] concerns the target T8, LILRB2 (UniProt Q8N423 22-597, limits assumed).
T8 construct: whole, on cells
The description is as above.

For assay [9], the target named is T9, LILRA4 (UniProt P59901 24-499, limits assumed).
T9 construct: whole, on cells
The assay is described as above.

The target of assay [10] is T10, LILRA2 (UniProt Q8N149 24-483, limits assumed).
T10 construct: whole, on cells
The description is as above.

Assay [11] addresses T11, LILRB3 (UniProt O75022 24-631, limits assumed).
T11 construct: whole, on cells
The description is as above.

The target of assay [12] is T12, LILRB1 (UniProt Q8NHL6 24-650, limits assumed).
T12 construct: whole, on cells
The description is as above.

For assay [13], the target named is T13, LILRA5 (UniProt A6NI73 42-299, limits assumed).
T13 construct: whole, on cells
The assay is described as above.

T13 sequence (A6NI73 42-299 limits assumed): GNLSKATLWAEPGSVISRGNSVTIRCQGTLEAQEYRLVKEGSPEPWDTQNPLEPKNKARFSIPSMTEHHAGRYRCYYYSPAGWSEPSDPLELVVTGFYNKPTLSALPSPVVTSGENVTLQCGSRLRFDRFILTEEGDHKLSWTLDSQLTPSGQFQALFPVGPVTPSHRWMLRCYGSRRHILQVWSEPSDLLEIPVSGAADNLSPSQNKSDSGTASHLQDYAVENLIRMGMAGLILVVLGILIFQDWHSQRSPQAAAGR
T4 sequence (Q6PI73 24-481 limits assumed): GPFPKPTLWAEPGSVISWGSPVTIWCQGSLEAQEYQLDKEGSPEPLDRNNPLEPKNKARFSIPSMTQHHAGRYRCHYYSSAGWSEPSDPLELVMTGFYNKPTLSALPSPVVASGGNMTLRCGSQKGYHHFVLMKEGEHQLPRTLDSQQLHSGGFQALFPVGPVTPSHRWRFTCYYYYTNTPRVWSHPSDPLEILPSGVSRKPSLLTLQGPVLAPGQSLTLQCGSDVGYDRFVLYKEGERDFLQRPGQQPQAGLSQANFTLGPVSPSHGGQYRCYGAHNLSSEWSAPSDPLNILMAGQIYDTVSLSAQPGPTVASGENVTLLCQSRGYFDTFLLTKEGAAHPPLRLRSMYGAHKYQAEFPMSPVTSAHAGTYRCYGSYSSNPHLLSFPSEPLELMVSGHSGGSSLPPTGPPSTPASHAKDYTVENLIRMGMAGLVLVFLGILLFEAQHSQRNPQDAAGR
T1 sequence (Q8NHJ6 219-259 limits assumed): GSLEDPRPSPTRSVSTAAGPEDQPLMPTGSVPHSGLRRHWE
T9 sequence (P59901 24-499 limits assumed): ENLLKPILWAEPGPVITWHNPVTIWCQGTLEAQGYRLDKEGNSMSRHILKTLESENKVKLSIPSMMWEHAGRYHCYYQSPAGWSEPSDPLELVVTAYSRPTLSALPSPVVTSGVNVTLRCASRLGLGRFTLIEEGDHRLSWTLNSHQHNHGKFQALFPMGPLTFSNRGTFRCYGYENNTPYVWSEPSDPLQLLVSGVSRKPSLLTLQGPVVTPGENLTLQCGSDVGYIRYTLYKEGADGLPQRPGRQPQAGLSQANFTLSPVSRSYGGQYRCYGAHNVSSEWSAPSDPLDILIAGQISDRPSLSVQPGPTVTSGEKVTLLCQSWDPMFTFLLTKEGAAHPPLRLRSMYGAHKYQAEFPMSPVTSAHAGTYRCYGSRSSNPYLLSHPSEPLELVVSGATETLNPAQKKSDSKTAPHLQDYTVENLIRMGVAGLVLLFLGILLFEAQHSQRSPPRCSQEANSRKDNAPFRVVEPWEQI
T8 sequence (Q8N423 22-597 limits assumed): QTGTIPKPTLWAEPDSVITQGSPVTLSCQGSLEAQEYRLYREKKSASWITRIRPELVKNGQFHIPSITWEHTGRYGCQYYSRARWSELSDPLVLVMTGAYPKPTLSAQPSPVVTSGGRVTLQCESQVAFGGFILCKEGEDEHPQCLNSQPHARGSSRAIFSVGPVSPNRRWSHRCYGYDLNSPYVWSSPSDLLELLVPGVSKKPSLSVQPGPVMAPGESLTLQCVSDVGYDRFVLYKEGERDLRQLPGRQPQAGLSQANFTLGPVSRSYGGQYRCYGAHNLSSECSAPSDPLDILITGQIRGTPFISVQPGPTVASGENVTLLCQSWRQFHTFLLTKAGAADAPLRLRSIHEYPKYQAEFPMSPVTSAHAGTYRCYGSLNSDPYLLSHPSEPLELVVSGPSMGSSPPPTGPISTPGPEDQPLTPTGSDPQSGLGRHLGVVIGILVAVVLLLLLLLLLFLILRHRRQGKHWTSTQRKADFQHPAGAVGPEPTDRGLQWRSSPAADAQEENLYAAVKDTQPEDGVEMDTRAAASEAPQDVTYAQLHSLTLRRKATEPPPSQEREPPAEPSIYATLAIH
T10 sequence (Q8N149 24-483 limits assumed): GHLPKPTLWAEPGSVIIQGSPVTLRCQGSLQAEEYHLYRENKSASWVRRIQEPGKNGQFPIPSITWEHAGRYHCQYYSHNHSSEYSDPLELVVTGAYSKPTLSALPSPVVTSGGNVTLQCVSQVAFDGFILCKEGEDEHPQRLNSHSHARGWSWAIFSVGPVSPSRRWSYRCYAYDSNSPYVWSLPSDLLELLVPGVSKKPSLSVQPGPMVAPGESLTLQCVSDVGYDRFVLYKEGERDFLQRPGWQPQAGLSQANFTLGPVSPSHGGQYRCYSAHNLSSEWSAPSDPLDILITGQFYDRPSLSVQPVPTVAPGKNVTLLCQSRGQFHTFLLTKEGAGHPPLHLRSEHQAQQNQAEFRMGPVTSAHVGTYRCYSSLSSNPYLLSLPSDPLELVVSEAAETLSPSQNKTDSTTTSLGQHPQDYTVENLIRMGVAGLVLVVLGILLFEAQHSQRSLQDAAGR
T5 sequence (O75019 17-489 limits assumed): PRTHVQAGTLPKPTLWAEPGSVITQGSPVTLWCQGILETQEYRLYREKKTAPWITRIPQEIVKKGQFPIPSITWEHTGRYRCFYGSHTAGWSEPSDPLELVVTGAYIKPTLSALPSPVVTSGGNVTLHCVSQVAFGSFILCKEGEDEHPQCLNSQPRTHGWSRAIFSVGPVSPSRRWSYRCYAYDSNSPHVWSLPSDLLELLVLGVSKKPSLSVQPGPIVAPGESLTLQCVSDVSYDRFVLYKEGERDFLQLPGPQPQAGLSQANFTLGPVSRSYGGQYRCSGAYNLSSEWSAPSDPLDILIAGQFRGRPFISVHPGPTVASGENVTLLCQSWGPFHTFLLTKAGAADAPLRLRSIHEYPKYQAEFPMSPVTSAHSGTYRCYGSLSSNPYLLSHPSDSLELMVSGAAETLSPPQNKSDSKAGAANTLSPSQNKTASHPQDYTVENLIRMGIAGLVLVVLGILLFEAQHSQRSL
T11 sequence (O75022 24-631 limits assumed): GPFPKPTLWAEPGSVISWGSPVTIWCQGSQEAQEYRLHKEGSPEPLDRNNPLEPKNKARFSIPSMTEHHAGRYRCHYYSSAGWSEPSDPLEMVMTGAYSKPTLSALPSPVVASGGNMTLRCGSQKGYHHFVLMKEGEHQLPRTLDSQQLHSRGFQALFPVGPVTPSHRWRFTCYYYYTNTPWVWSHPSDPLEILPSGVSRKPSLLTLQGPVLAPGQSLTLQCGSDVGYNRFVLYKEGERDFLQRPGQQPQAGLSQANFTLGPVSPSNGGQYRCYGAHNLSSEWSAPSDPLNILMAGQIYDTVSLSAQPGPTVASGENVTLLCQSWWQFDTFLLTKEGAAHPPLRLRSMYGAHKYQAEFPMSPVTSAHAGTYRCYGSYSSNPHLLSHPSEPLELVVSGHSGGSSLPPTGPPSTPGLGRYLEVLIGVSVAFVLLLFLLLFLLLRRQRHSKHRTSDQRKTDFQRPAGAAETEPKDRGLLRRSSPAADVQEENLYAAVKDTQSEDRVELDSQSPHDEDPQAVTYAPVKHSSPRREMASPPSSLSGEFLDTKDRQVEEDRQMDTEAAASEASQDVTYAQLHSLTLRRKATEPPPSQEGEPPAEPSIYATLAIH
T7 sequence (Q8N6C8 24-439 limits assumed): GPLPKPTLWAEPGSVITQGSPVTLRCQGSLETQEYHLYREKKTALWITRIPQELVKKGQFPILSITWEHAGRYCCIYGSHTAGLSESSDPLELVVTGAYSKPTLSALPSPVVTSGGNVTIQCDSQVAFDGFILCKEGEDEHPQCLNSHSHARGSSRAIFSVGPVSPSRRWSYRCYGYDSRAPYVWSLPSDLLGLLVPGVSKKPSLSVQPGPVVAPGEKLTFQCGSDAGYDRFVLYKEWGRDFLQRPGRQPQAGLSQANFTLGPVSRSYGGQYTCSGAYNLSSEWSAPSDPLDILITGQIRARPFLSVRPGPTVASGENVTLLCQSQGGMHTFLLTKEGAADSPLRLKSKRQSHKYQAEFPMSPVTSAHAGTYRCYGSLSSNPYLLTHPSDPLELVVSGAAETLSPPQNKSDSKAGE
T12 sequence (Q8NHL6 24-650 limits assumed): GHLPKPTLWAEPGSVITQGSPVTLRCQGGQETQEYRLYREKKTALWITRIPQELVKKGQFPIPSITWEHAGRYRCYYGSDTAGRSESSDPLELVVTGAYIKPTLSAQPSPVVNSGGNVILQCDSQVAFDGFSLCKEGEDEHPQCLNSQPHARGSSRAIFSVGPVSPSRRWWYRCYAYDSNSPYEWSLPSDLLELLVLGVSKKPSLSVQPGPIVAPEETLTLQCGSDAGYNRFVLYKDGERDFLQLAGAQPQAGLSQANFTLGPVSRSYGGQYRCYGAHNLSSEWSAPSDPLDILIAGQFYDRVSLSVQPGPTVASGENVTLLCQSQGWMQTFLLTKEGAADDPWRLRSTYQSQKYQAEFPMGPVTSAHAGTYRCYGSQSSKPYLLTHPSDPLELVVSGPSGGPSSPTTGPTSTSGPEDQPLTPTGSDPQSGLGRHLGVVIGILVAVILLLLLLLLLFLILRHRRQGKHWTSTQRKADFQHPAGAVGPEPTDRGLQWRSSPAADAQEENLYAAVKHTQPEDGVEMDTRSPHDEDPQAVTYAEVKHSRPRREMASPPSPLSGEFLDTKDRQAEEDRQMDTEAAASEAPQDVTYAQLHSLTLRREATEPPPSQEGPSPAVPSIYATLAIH
T6 sequence (O75023 24-590 limits assumed): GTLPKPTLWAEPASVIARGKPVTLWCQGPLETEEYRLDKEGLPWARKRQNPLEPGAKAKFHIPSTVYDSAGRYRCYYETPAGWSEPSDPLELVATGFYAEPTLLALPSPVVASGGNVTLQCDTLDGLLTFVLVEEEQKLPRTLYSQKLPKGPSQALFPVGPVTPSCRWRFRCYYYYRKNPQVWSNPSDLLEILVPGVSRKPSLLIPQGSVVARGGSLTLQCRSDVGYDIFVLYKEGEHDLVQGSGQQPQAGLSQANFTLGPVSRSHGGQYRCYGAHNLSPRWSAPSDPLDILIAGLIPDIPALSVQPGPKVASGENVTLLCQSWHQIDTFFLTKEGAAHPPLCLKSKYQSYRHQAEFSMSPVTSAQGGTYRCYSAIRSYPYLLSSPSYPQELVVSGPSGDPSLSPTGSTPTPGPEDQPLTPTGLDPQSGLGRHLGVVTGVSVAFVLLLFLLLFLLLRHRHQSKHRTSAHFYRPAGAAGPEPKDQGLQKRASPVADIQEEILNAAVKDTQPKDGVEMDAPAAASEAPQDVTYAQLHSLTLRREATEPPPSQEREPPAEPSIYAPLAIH

B1: NLB14 VHH antibody fused with human IgG1 (Fc) (Fc fusion)
chain: DVQLQESGGGLVQPGGSLRLSCAASGFTLDYYAIGWFRQAPGKEREGVSCVSSSDGSTYYADSVKGRFTISRDNAKNTVYLQMNSLKPEDTAVYYCAADQYSSTWTIRLTRCHFGSWGQGTQVTVSSGGGGS
notes: also called NLB(G4S)IGG1FC; NLB14 nanobody; not shown: human IgG1 Fc
In general, Kd refers to the concentration at which binding is half-saturated. Low readings indicate tighter binding, high ones weaker binding. As a reminder, the koff is the rate constant with which the complex falls apart. A high value points to a short-lived complex. As a reminder, the kon is a measure of how fast the partners come together. Lower therefore signals slow association. Turning to B1, the binding result in [1], in [3], in assay [4], in [5], in [6] and in assay [7] was “no binding” in each case. Moreover, the binding result in assay [8], in [9], in assay [10], in assay [11], in assay [12] and in assay [13] was “no binding” in each case. The same molecule showed an equilibrium dissociation constant (Kd) in assay [2] of 0.493 nM. Further, the koff in assay [2] turned out to be 0.000301 s⁻¹. Further, the kon in [2] stood at 612000 M⁻¹ s⁻¹.

B2: NLB4 VHH antibody fused with human IgG1 (Fc) (Fc fusion)
chain: DVQLQESGGGLVQSGGSLRLSCLASGTSGNVKAVGWYGWYRQAPGKQREVVATITRGGIPNYADSVQGRFTISRDNAQDTVFLQMNSLKPADTAVYYCYARILTDDWHDLWGQGTQVTVSSGGGGS
notes: also called NLB(G4S)IGG1FC; NLB4 nanobody; not shown: human IgG1 Fc
Take B2: the binding result in assay [1], in assay [3], in assay [4], in assay [5], in assay [6] and in assay [7] was “no binding” throughout. The binding result in assay [8], in [9], in [10], in assay [11], in [12] and in [13] was “no binding” each time. In [2], this molecule gave a Kd of 1.32 nM. The molecule also came in with an off-rate (koff) in assay [2] of 0.000551 s⁻¹. In addition, in assay [2], the kon was determined as 418000 M⁻¹ s⁻¹.
